{
  "source": "paper PMC5829230",
  "about": "“G-protein βγ subunits determine grain size through interaction with MADS-domain transcription factors in rice”",
  "biological_target": "GST-OsMADS1 (Oryza sativa, UniProt Q10PZ9 1-257)",
  "sequence (Q10PZ9 whole entry)": "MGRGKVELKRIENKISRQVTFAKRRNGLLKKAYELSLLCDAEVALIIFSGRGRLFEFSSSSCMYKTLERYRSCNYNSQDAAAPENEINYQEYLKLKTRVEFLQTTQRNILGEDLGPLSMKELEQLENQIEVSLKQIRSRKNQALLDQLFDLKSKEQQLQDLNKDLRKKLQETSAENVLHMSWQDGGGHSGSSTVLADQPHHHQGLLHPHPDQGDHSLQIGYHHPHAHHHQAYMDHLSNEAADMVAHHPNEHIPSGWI",
  "assay": "EMSA; 10x and 50x unlabeled probe as competitor; LightShift Chemiluminescent EMSA Kit (Thermo 20148); buffer, salt, pH and temperature not stated",
  "settings": "protein: recombinant; tags: N-terminal GST (pGEX-4T-1); chain copies: 2; label: biotin; blunt",
  "data": [
    {"binder": "MADS55-EMSA-probe (dsDNA) DNA 1: AGGCAGTATCTATCTATTTATTGCGTATAAACTAAAT DNA 2: ATTTAGTTTATACGCAATAAATAGATAGATACTGCCT", "values": [
      {"measurement": "binding result", "value": "binds"}
    ]}
  ]
}
